Where a chain is given by its changes, count along the chain named. Names and notes keep the numbering of the source.

Assay [1] concerns the target T1, recombinant mouse IL-23 (R&D Systems Cat#1887-ML) (mouse, UniProt Q9EQ14 22-196; P43432 23-335).
T1 construct: also called mIL-23
T1 sequence (looked up) 1: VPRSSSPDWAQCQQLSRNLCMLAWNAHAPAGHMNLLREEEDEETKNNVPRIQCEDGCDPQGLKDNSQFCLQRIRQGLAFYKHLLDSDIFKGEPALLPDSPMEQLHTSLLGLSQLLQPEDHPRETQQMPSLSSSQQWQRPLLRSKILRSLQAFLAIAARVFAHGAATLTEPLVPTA
T1 sequence (looked up) 2: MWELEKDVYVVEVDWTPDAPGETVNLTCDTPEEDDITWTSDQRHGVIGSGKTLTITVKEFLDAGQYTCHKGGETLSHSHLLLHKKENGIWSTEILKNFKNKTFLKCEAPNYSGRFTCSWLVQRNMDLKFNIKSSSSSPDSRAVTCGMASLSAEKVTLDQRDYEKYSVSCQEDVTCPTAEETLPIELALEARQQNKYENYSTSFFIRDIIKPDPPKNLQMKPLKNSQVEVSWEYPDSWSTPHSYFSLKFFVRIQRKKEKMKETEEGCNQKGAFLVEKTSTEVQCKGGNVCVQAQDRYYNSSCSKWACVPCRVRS
Briefly: ELISA, coated cytokine, Ab 10 µg/ml.

Assay [2] deals with T2, recombinant mouse IFN-γ (R&D Systems Cat#485-MT) (mouse, UniProt P01580 23-155).
T2 construct: also called mIFN-γ
T2 sequence (looked up): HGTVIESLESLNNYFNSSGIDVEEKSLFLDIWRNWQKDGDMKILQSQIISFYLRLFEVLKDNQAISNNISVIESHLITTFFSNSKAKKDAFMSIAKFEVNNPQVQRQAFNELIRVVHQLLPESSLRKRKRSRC
Briefly: ELISA, coated cytokine, Ab 10 µg/ml.

Assay [3] deals with T3, recombinant mouse IL-17F (R&D Systems Cat#2057-IL/CF) (mouse, UniProt Q7TNI7 29-161).
T3 construct: also called mIL-17F
T3 sequence (looked up): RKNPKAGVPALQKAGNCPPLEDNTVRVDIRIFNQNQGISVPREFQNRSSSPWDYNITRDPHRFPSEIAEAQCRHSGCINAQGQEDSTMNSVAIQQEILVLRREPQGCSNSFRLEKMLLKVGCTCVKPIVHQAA
In words: ELISA, coated cytokine, Ab 10 µg/ml.

Assay [4] deals with T4, recombinant mouse IL-1β (R&D Systems Cat#401-ML) (mouse, UniProt P10749 118-269).
T4 construct: also called mIL-1β
T4 sequence (looked up): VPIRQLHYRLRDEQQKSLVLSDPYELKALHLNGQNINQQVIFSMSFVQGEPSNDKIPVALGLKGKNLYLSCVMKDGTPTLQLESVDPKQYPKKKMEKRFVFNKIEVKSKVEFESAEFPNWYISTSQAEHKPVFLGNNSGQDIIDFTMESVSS
In words: ELISA, coated cytokine, Ab 10 µg/ml.

The target in assay [5] is T5, recombinant mouse IL-17A/F (R&D Systems Cat#5390-IL) (mouse, UniProt Q62386 26-158; Q7TNI7 29-161, limits assumed).
T5 construct: bought heterodimer; also called mIL-17A/F; rmIL-17A/F
T5 sequence (looked up) 1: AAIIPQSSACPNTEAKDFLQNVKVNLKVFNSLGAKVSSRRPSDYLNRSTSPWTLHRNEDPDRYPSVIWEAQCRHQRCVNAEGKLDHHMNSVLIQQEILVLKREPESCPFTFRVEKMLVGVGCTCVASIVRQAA
T5 sequence (looked up) 2: T3 sequence (looked up)
Briefly: ELISA, coated cytokine, Ab 10 µg/ml.

Assay [6] addresses T6, recombinant mouse IL-17A (SEQ ID NO: 83) (mouse, UniProt Q62386 26-158).
T6 construct: also called mIL-17A; rmIL-17A
T6 sequence: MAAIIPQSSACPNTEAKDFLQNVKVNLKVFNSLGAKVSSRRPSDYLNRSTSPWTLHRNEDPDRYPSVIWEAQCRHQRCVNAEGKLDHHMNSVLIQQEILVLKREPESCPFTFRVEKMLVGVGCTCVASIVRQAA
Briefly: ELISA, coated cytokine, Ab 10 µg/ml.

In assay [7] the target is T7, recombinant mouse IL-12 (R&D Systems Cat#419-ML-010/CF) (mouse, UniProt P43431 23-215; P43432 23-335).
T7 construct: coated at 0.5 µg/ml; also called mIL-12
T7 sequence (looked up) 1: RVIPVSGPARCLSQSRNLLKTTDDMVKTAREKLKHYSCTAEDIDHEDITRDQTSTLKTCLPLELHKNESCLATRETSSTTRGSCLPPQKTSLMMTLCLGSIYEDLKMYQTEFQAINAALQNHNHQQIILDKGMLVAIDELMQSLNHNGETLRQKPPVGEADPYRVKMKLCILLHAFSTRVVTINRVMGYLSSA
T7 sequence (looked up) 2: T1 sequence (looked up) 2
In words: ELISA, coated cytokine, Ab 10 µg/ml.

In assay [8] the target is T8, recombinant mouse IL-6 (R&D Systems Cat#406-ML-010/CF) (mouse, UniProt P08505 25-211).
T8 construct: coated at 0.5 µg/ml; also called mIL-6
T8 sequence (looked up): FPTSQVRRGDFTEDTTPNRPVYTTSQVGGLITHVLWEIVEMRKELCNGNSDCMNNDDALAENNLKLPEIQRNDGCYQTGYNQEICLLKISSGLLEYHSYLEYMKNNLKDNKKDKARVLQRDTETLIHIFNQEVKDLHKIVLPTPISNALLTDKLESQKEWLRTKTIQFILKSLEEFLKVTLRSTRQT
In words: ELISA, coated cytokine, Ab 10 µg/ml.

For assay [9], the target named is T9, recombinant mouse TNFα (R&D Systems Cat#410-MT) (mouse, UniProt P06804 80-235).
T9 construct: coated at 0.5 µg/ml; also called mTNFα
T9 sequence (looked up): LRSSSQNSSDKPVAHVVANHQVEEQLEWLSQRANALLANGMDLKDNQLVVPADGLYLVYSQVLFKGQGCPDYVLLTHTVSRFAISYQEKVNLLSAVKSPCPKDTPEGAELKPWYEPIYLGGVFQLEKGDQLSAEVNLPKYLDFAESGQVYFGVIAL
In words: ELISA, coated cytokine, Ab 10 µg/ml.

Assay [10] addresses T10, recombinant human TNFα (Novartis) (human, UniProt P01375 77-233).
T10 construct: also called huTNFα
Briefly: ELISA, coated cytokine.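 Note: antibodies incubated 3 h at room temperature on cytokine-coated plates, binding read out with alkaline phosphatase-conjugated anti-species IgG secondary antibodies.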

Assay [11] has as its target T11, recombinant human EGF (Sigma Cat#E9644) (human, UniProt P01133 971-1023).
T11 construct: also called huEGF
In words: ELISA, coated cytokine.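 Note: antibodies incubated 3 h at room temperature on cytokine-coated plates, binding read out with alkaline phosphatase-conjugated anti-species IgG secondary antibodies.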

T10 sequence (P01375 77-233 limits assumed): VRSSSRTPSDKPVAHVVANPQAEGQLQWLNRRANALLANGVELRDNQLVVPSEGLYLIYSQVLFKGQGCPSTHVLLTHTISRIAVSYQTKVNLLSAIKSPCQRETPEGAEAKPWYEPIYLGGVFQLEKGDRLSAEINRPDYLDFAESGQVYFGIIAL
T11 sequence (P01133 971-1023 limits assumed): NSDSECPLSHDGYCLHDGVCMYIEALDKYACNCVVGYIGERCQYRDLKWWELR

B1: XAB4 (antibody, human IgG1, kappa, V domains shown)
VH: EVQLVESGGDLVQPGGSLRLSCAASGFTFSSYWMSWVRQAPGKGLEWVANIKQDGSEKYYVDSVKGRFTISRDNAKNSLYLQMNSLRAEDTAVYYCARDRGSLYYWGQGTLVTVSS
VL: AIQLTQSPSSLSASVGDRVTITCRPSQGINWELAWYQQKPGKAPKLLIYDASSLEQGVPSRFSGSGSGTDFTLTISSLQPEDFATYYCQQFNSYPLTFGGGTKVEIKR
notes: also called MB435 N56Q
As to B1, the O.D. in [1] was 0.058 O.D; in assay [2], 0.038 O.D; in [3], 0.034 O.D; in [4], 0.022 O.D; in assay [5] it was 3.34 O.D; in assay [6], 3.29 O.D. Besides, the O.D. in assay [7] stood at 0.035 O.D; in [8], 0.031 O.D; in assay [9] it was 0.065 O.D. The binding result in assay [10] and in [11] was “no binding (tested: 10 µg/ml)” in each case.

B2: XAB1 (antibody, human IgG1, kappa, V domains shown)
VH: B1 VH
VL: B1 VL with N30I, W31S, E32A, Q56N
notes: human IgG1/kappa monoclonal antibody; also called parental XAB1; XAB1 IgG
As for B2, the O.D. in assay [1] is 0.009 O.D; in assay [2], 0.048 O.D; in [3], -0.058 O.D; in assay [4] it was 0.007 O.D; in assay [5] it was 3.17 O.D; in [6] it was 2.97 O.D. Also, the O.D. in assay [7] was -0.005 O.D; in assay [8], 0.038 O.D; in [9], 0.025 O.D. Besides, the binding result in assay [10] and in [11] was “no binding (tested: 10 µg/ml)” each time.

The values above are taken from US20180194839A1 (Novartis, published 2018).
